{
  "source": "patent US20030129688A1",
  "about": "(published 2003)",
  "binders": {"B1": {"name": "HRG8 (HRG-β1 177-228 fused via (GGGS)3 to pIII 323, displayed on phage) (ligand, human, not shown: large carriers)", "chain": "SHLVKCAEKEKTFCVNGGECFMVKDLSNPSRYLCKCPNEFTGDRCQNYVMASGGGSGGGSGGGS", "notes": "monovalent phage display; also called pHRG8-g3; wild-type HRG-β1 EGF-phage"}, "B2": {"name": "HRG2 (HRG-β1 177-244 fused to pIII 247, displayed on phage) (ligand, human, UniProt Q02297-6 177-244, looked up, not shown: large carriers)", "chain": "SHLVKCAEKEKTFCVNGGECFMVKDLSNPSRYLCKCPNEFTGDRCQNYVMASFYKHLGIEFMEAEELY", "notes": "monovalent phage display; also called pHRG2-g3"}, "B3": {"name": "recombinantly produced HRG-β1 177-244 (ligand, human, UniProt Q02297-6 177-244, looked up)", "chain": "B2 chain"}, "B4": {"name": "HRG-β1 177-244 F216A displayed on phage (ligand, not shown: large carriers; small tags and cut ends)", "chain": "B2 chain with F40A", "notes": "from pHRG2-g3; monovalent phage display"}},
  "key": {"[1]": {"target": "T1, ErbB-3 receptor-Ig fusion (human, UniProt P21860 20-643; P21860 20-636)", "test": "phage ELISA, competition with soluble ErbB-3-Ig"}, "[2]": {"target": "T2, ErbB-4 receptor-Ig fusion (human, UniProt Q15303 26-651; Q15303 26-640)", "T2 sequence (Q15303 other isoform, or with tags, fused parts or gaps)": "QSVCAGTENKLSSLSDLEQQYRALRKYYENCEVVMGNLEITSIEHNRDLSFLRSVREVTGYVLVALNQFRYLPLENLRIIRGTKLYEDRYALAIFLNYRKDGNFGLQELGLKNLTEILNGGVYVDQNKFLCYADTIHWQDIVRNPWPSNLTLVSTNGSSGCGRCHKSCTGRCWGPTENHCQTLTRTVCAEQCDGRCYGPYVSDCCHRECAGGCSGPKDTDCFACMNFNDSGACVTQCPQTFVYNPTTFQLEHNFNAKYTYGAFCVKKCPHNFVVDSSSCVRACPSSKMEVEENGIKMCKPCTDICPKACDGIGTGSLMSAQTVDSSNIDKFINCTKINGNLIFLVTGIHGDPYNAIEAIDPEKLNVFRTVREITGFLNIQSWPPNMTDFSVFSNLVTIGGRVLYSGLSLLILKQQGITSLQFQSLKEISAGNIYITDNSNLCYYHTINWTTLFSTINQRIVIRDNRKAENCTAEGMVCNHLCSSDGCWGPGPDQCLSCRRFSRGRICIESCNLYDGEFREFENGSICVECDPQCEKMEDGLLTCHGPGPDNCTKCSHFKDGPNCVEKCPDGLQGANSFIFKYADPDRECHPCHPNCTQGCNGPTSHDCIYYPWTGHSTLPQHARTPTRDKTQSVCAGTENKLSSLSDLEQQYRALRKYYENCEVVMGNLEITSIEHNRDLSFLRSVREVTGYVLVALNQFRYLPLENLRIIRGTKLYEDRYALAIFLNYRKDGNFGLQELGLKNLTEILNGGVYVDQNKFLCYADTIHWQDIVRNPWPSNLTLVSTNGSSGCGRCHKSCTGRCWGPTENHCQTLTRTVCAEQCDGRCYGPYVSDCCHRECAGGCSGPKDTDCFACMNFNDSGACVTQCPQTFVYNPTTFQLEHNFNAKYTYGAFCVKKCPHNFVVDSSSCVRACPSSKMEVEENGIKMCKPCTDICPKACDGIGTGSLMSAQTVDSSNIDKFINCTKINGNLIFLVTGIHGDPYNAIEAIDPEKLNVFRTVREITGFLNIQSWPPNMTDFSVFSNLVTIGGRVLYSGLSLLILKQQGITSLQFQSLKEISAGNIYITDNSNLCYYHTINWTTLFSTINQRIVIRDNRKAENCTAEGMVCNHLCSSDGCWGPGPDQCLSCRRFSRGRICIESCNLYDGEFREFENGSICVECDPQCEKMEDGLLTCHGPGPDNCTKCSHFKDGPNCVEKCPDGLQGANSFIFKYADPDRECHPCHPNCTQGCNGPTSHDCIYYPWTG", "test": "phage ELISA, competition with soluble ErbB-4-Ig"}, "[3]": {"target": "ErbB-2/3 receptor-Ig fusion (human, UniProt P04626 23-652; P04626 23-645; P21860 20-643; P04626 23-645)", "test": "phage ELISA, competition with soluble ErbB-2/3-Ig", "procedure": "(§1) Microtiter plates (Nunc Maxisorp™ 96-well plates, Inter Med, Denmark) for phage ELISA were prepared as follows. The wells were precoated overnight with 0.5 μg of rabbit anti-human IgG (Fc gamma fragment-specific) antibodies (Jackson Immunoresearch, West Grove, Pa.) in 100 μL 50 mM NaCO₃ (pH 9.6). The wells were blocked for 30 minutes (min) with 200 μL PBS containing 0.1% bovine serum albumin (BSA) and rinsed with wash buffer (PBS containing 0.05% Tween 20™). The wells were then coated with 0.1 μg ErbB-2/3-Ig in binding buffer (PBS, 0.1% BSA, 0.05% Tween 20™) for 1 h, and washed again.\n(§2) Following incubation for 2 h at room temperature, plates were washed extensively and treated with a 1:900 dilution of anti-M13 horseradish peroxidase conjugate (Pharmacia, Piscataway, N.J.) for 20 min. The amount of phage binding was determined by assaying horseradish peroxidase activity using o-phenylenediamine dihydrochloride) substrate solution (Sigma Chemical Company, St. Louis, Mo.)."}, "[4]": {"target": "T1, ErbB-3 receptor-Ig fusion", "test": "phage ELISA, competition with soluble ErbB-3-Ig; reference"}, "[5]": {"target": "T2, ErbB-4 receptor-Ig fusion", "test": "phage ELISA, competition with soluble ErbB-4-Ig; reference"}, "[6]": {"target": "ErbB-3 receptor-Ig fusion (human) (UniProt P21860)", "test": "phage ELISA, competition with soluble ErbB-3-Ig"}, "[7]": {"target": "ErbB-4 receptor-Ig fusion (human) (UniProt Q15303)", "sequence (Q15303 other isoform, or with tags, fused parts or gaps)": "as above", "test": "phage ELISA, competition with soluble ErbB-4-Ig"}, "[8]": {"target": "ErbB-3 receptor-Ig fusion (human) (UniProt P21860)", "test": "125I-HRG-β1 177-244 displacement, ErbB-3-Ig on plate"}, "[9]": {"target": "ErbB-4 receptor-Ig fusion (human) (UniProt Q15303)", "test": "125I-HRG-β1 177-244 displacement, ErbB-4-Ig on plate"}, "[10]": {"target": "T1, ErbB-3 receptor-Ig fusion", "test": "phage ELISA, competition with soluble ErbB-3-Ig", "remark": "listed apart in the source", "procedure": "as §1, §2"}},
  "note": "Substitutions are numbered along the chain they refer to. Names may count otherwise. Like-named read-outs stand apart in the source and are kept apart here.",
  "data": [
    {"binder": "B1", "values": [
      {"measurement": "EC50", "setting": "[1]", "result": 135, "unit": "nM"},
      {"measurement": "EC50", "setting": "[2]", "result": 163, "unit": "nM"},
      {"measurement": "EC50", "setting": "[3]", "result": 11, "unit": "nM"},
      {"measurement": "EC50 (wt)/EC50 (mut)", "setting": "[4]", "result": 1, "unit": "ratio"},
      {"measurement": "EC50 (wt)/EC50 (mut)", "setting": "[5]", "result": 1, "unit": "ratio"}
    ]},
    {"binder": "B2", "values": [
      {"measurement": "EC50", "setting": "[6]", "result": 13, "unit": "nM"},
      {"measurement": "EC50", "setting": "[7]", "result": 19, "unit": "nM"},
      {"measurement": "EC50", "setting": "[3]", "result": 6, "unit": "nM"}
    ]},
    {"binder": "B3", "values": [
      {"measurement": "EC50", "setting": "[8]", "result": 9, "unit": "nM"},
      {"measurement": "EC50", "setting": "[9]", "result": 14.8, "unit": "nM"}
    ]},
    {"binder": "B4", "values": [
      {"measurement": "EC50", "setting": "[10]", "result": 500, "unit": "nM"}
    ]}
  ]
}
